Laboratory results: article PMC11336944, “CWF19L2 is Essential for Male Fertility and Spermatogenesis by Regulating Alternative Splicing” (Advanced Science, 2024)

Target: T1, PRPF8 (mouse (endogenous in testis), UniProt Q99PV0 1-2335)
T1 construct: PRPF8 (pre-mRNA-processing-splicing factor 8), mouse, endogenous in testis and sorted germ cells; also called spliceosome skeleton marker PRPF8; source: endogenous, PD10 WT mouse testis extract; endogenous, lysate of sorted germ cells from Cwf19l2‐SKO and control mice
Assay: co-IP; PRPF8 antibody immunoprecipitation from sorted germ cells of Cwf19l2-SKO mice (CWF19L2 deleted in germ cells), immunoblotting, bands quantified against control mice; IgG as negative control
Conditions: partners not purified

B1: PRPF43 (natural protein, mouse (endogenous in testis), UniProt O35286 1-795, looked up)
chain: MSKRHRLDLGEDYPSGKKRAGTDGKDRERDRDREDRSKDRDRERDRGDREREREKEKEKELRASTNAMLISAGLPPLKASHSAHSTHSAHSTHSTHSAHSTHTGHTGHTSLPQCINPFTNLPHTPRYYDILKKRLQLPVWEYKDRFTDILVRHQSFVLVGETGSGKTTQIPQWCVEYMRSLPGPKRGVACTQPRRVAAMSVAQRVADEMDVMLGQEVGYSIRFEDCSSAKTILKYMTDGMLLREAMNDPLLERYGVIILDEAHERTLATDILMGVLKEVVRQRSDLKVIVMSATLDAGKFQIYFDNCPLLTIPGRTHPVEIFYTPEPERDYLEAAIRTVIQIHMCEEEEGDLLLFLTGQEEIDEACKRIKREVDDLGPEVGDIKIIPLYSTLPPQQQQRIFEPPPPKKQNGAIGRKVVVSTNIAETSLTIDGVVFVIDPGFAKQKVYNPRIRVESLLVTAISKASAQQRAGRAGRTRPGKCFRLYTEKAYKTEMQDNTYPEILRSNLGSVVLQLKKLGIDDLVHFDFMDPPAPETLMRALELLNYLAALNDDGDLTELGSMMAEFPLDPQLAKMVIASCDYNCSNEVLSITAMLSVPQCFVRPTEAKKAADEAKMRFAHIDGDHLTLLNVYHAFKQNHESVQWCYDNFINYRSLMSADNVRQQLSRIMDRFNLPRRSTDFTSRDYYINIRKALVTGYFMQVAHLERTGHYLTVKDNQVVQLHPSTVLDHKPEWVLYNEFVLTTKNYIRTCTDIKPEWLVKIAPQYYDMSNFPQCEAKRQLDRIIAKLQSKEYSQY
notes: PRPF43 / PRP43 as printed, mouse, endogenous in testis and sorted germ cells; also called PRP43; ILS complex marker PRPF43; source: endogenous, PD10 WT mouse testis extract; endogenous, lysate of sorted germ cells from Cwf19l2‐SKO and control mice
fold PRPF43 in the PRPF8 co-IP, control over Cwf19l2-SKO, normalised to PRPF8: 1.5 times
